Results on 13 molecules are retold here after patent US20090202506A1 (ORTHO MCNEIL PHARMACEUTICAL, published 2009).

The target of assay [1] is T1, D^b MHC class I molecule (;mouse, UniProt P01887 21-119; P01899 25-309, limits assumed).
T1 construct: Empty class I molecule on the surface of RMAS cells; also called D^b class I molecules
T1 sequence (MHC heavy, looked up): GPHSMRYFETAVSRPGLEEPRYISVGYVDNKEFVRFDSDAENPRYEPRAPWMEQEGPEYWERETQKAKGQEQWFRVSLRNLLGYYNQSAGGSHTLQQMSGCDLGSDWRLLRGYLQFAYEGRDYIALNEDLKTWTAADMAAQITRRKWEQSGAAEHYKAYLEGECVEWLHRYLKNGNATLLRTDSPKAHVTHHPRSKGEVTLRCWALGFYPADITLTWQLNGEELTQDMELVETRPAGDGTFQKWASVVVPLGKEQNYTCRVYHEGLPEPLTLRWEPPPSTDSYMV
T1 sequence (b2m, looked up): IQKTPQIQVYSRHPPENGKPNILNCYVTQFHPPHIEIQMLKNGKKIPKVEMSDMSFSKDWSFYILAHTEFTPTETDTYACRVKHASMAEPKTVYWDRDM
Briefly: MHC class I stabilization assay, flow cytometry of surface D^b on RMAS cells with titrated peptide. The procedure: (§1) The binding capacity of these synthetic peptides to L^d and D^b class I molecules were tested in an MHC class I stabilization assay (Cai et al. (1996) supra). Antigen-transporting deficient (TAP) RMAS cells (H-2^b) or L^d transfected RMAS (RMAS-L^d) cells were cultured in the presence of a titrated concentration of peptides at 27° C. After overnight culturing at 27° C., these cells were further cultured for two hours at 37° C. and the surface expression of L^d or D^b on the cells were analyzed by flow cytometry. […] Of the five peptides predicted bind to D^b, only IgE44 binds Db strongly and two peptides, IgE16 and IgE125, bind D^b weakly. […] Thus, a total of six peptides were identified that bind to either L^d or D^b MHC class I molecules.
Background: In flow cytometry, cells or beads pass a laser one at a time.

Assay [2] deals with T2, L^d MHC class I molecule (;mouse, UniProt P01887 21-119; P01897 25-362, limits assumed).
T2 construct: Empty class I molecule on the surface of RMAS-L^d cells; also called L^d class I molecules
T2 sequence (MHC heavy, looked up): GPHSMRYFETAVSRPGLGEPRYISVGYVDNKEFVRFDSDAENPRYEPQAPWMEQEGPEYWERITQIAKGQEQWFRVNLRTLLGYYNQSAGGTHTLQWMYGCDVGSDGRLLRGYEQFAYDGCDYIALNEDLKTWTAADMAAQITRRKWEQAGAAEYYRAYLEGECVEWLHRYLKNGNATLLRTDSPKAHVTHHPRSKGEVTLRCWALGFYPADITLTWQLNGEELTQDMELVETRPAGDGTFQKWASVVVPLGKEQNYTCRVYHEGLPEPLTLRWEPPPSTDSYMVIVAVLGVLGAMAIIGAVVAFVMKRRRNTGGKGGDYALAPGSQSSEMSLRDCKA
T2 sequence (b2m, looked up): T1 sequence (b2m, looked up)
Briefly: MHC class I stabilization assay, flow cytometry on RMAS-L^d cells. On the procedure: as §1

The target of assay [3] is T1, D^b MHC class I molecule. Description: MHC class I stabilization assay, flow cytometry on RMAS cells. On the procedure:
as §1

Assay [4] deals with T2, L^d MHC class I molecule. Description: MHC class I stabilization assay, flow cytometry of surface L^d on RMAS-L^d cells with titrated peptide. The procedure: as §1

TSLGNTSLR [IgE 411]: in assay [1], the binding result is reported as “no binding”.
For GSNQGFFIF [IgE 366], the binding result in assay [2] and in assay [3] was “binds” each time.
In the case of IPPSPLDLY [IgE 209], in assay [4], the binding result is on record as “no binding”.
Still for that read-out and setting: under HSSCDPNAF [IgE 105] stands “no binding”; under RSAPEVYVF [IgE 307], “no binding”.
Consider MSTVNFPAL (also called MSTVNFPAL) [IgE 44], for which the “ratio of fluorescence intensity (with peptide - without peptide)/without peptide” value in assay [3] is > 2 fold.
As for HSTIQLYCF [IgE 114], the binding result in assay [2] is given as “binds”.
For ASTCSKLNI [IgE 159], the binding result in assay [1] is listed as “no binding”.
For TASMTLGCL [IgE 16], the binding result in assay [3] was “binds”.
FPNPVTVTW [IgE 29]: in assay [4], the binding result is on record as “no binding”.
Same read-out and setting: the same measure for KSNGSNQGF [IgE 363]: “no binding”.
With GHILNDVSV [IgE 125], in assay [3], the binding result was “binds”.
With KPCKGTASM [IgE 11], in assay [2], the “ratio of fluorescence intensity (with peptide - without peptide)/without peptide” value was > 2 fold.
